{"source": "patent US20170275357A1", "binders": {"B1": {"name": "α/βVCV2 IgG1.1 (bispecific antibody)", "heavy": "EVQLVESGGGLVKPGGSLKLSCAASGFAFSSYAMSWVRQSPEKRLEWVATISSGGHYTFYPDSVKGRFTISRDNAKNTLYLQMSSLRSEDTAIYYCARRYYALDYWGQGTSVTVSSASTKGPSVFPLAPSSKSTSGGTAALGCLVKDYFPEPVTVSWNSGALTSGVHTFPAVLQSSGLYSLSSVVTVPSSSLGTQTYICNVNHKPSNTKVDKKVEPKSCGGGGSGGGGSEVQLQQSGPELVKTGASVKISCKASGYSFINHYMNWVKQSRGKSLEWIGYVSCYNGATGYNQKFKDKATFTVDTSSSTAYMQFNNLTSEDSAVYYCARRGFMEAMDYWGQGTSVTVSSEPKSSDKTHTCPPCPAPEAEGAPSVFLFPPKPKDTLMISRTPEVTCVVVDVSHEDPEVKFNWYVDGVEVHNAKTKPREEQYNSTYRVVSVLTVLHQDWLNGKEYKCKVSNKALPSSIEKTISKAKGQPREPQVYTLPPSRDELTKNQVSLTCLVKGFYPSDIAVEWESNGQPENNYKTTPPVLDSDGSFFLYSKLTVDKSRWQQGNVFSCSVMHEALHNHYTQKSLSLSPGK", "light": "DIVMTQSQKFMSTSLGDRVSVSCKASQNVLTNVAWYQQKPGQSPKTLIYSASYRYSGVPDRFTGSGSGTDFTLTISIVQSEDLAEYFCQQYNIYPWTFGGGTKLEIKRTVAAPSVFIFPPSDEQLKSGTASVVCLLNNFYPREAKVQWKVDNALQSGNSQESVTEQDSKDSTYSLSSTLTLSKADYEKHKVYACEVTHQGLSSPVTKSFNRGECGGGGSGGGGSDIVMTQSPFSLTVTVGEKVTMSCKSSQSLLNSRTRKNYLAWYQQKPGQSPKLLIYWASTRESGVPDRFTGSGSGTDFTLTISSVQAEDLAVYYCKQSYNLYTFGGGTKLEIK"}}, "molecular_target": "PDGFRα/PDGFRβ", "test": "cell-based or functional assay"}
{"binder": "B1", "values": [{"measurement": "% Inhibition of PDGFC-induced NHLF proliferation", "value": 70, "unit": "%"}, {"measurement": "% Inhibition of PDGFD-induced NHLF proliferation", "value": 100, "unit": "%"}]}
